Values quoted from earlier work as cited in PMC7022251.

Target: Beclin-1 BH3 (UniProt Q14457)
Sequence of UniProt Q14457 (Q14457 105-130): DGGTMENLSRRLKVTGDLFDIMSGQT

For M11 (from UniProt P89884), the Kd is listed as 40 nM.
